Experimental data from US20170224837A1.
Where two headings read alike, the source gives them in different places. Blank lines part the entries; values can stand above or below the molecule they belong to.

Columns and labels:
[1] = biological target: human Trop-2 (EGP-1, TACSTD2) on human tumor cells or tissues (human) (UniProt P09758); test: cell-based or functional assay
[2] = biological target: recombinant human neonatal receptor (FcRn) (human) (UniProt P55899); test: SPR (BIACORE), FcRn chip
[3] = biological target: rhTrop-2/TACSTD2 (Sino Biological, Inc.), recombinant human Trop-2 immobilized on CM5 chip (human) (UniProt P09758); test: SPR (BIACORE), Trop-2 chip
[4] = biological target: human Trop-2 (EGP-1, TACSTD2) on human tumor cells or tissues (human) (UniProt P09758); test: cell binding assay; cell line not stated
[5] = biological target: recombinant human neonatal receptor (FcRn) (human) (UniProt P55899); test: SPR (BIACORE), low-density FcRn chip, three runs at 400 to 25 nM
[6] = biological target: rhTrop-2/TACSTD2 (Sino Biological, Inc.), recombinant human Trop-2 immobilized on CM5 chip (human) (UniProt P09758); test: SPR (BIACORE), low-density recombinant human Trop-2 chip, three runs
[7] = biological target: human Trop-2 (EGP-1, TACSTD2) on human tumor cells or tissues (human) (UniProt P09758); test: cell binding on NCI-N87 cells, anti-mouse-HRP, luminescence
[8] = biological target: human Trop-2 (EGP-1, TACSTD2) on human tumor cells or tissues (human) (UniProt P09758); test: cell-based or functional assay; remark: listed apart in the source
[9] = biological target: Recombinant human Trop-2 with a His-tag (Sino Biological, Inc., Cat#10428-H09H) (human) (UniProt P09758); test: ELISA on Ni-NTA strips coated with His-tagged recombinant human Trop-2
Recombinant human Trop-2 with a His-tag (Sino Biological, Inc., Cat#10428-H09H) (human), sequence (P09758 27-274 limits assumed): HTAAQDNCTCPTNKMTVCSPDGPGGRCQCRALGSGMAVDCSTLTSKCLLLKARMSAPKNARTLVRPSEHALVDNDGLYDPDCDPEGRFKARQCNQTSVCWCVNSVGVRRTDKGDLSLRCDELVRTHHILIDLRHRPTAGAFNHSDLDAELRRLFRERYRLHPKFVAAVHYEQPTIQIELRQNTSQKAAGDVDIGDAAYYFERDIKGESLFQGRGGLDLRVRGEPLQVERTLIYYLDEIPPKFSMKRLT

recombinant human neonatal receptor (FcRn) (human), sequence (P55899 24-297 limits assumed): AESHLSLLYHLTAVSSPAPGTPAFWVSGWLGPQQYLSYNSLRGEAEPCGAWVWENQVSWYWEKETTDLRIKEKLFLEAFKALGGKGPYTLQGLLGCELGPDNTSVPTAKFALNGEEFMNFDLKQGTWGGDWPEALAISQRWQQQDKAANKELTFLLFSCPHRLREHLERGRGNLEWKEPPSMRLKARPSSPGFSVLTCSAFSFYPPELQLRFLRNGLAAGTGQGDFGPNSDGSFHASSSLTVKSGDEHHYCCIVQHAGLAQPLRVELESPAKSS
human Trop-2 (EGP-1, TACSTD2) on human tumor cells or tissues (human), sequence (P09758 27-323): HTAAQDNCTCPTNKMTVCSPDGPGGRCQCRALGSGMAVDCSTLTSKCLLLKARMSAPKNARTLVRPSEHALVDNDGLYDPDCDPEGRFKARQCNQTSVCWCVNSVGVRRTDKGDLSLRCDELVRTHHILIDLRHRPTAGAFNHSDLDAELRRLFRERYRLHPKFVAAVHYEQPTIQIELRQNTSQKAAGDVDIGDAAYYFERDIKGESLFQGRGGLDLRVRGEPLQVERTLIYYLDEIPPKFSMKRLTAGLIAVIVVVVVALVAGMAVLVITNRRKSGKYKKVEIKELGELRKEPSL
rhTrop-2/TACSTD2 (Sino Biological, Inc.), recombinant human Trop-2 immobilized on CM5 chip (human), sequence (P09758 27-274 limits assumed): as the sequence (P09758 27-274 limits assumed) above

Molecule: 162-46.2 (murine monoclonal antibody against human Trop-2, hybridoma ATCC HB-187)
- BMax (relative luminescent units) [7]: 8470
- Kd [7]: 0.52 nM
- reduction of maximum binding (Bmax) against RS7 [7]: 25%

Molecule: MAB650 (murine monoclonal antibody against human Trop-2, R&D Systems)
- BMax (relative luminescent units) [7]: 6020
- Kd [7]: 0.49 nM
- reduction of maximum binding (Bmax) against RS7 [7]: 50%

B1: humanized RS7 (hRS7) anti-Trop-2 antibody, hRS7 IgG (antibody, INN chains, looked up, V domains shown, part only)
VH: QVQLQQSGSELKKPGASVKVSCKASGYTFTNYGMNWVKQAPGQGLKWMGWINTYTGEPTYTDDFKGRFAFSLDTSVSTAYLQISSLKADDTAVYFCARGGFGSSYWYFDVWGQGSLVTVSS
VL: DIQLTQSPSSLSASVGDRVSITCKASQDVSIAVAWYQQKPGKAPKLLIYSASYRYTGVPDRFSGSGSGTDFTLTISSLQPEDFAVYYCQQHYITPLTFGAGTKVEIK
- ADCC, specific lysis of BxPC-3 by PBMC (E:T 100:1, 33.3 nM) [8]: 8.5%
- ADCC, specific lysis of MDA-MB-468 (4-h LDH release, E:T 50:1, 33.3 nM) [8]: 29.8%
- Kd [5]: 92.4 nM
- Kd [6]: 0.51 nM
- Kd [9]: 0.3 nM

Other lines, results leading:

- ADCC, specific lysis of MDA-MB-468 (4-h LDH release, E:T 50:1, 33.3 nM) [1]: 8.6%
- Median fluorescence intensity of anti-rH2AX-AF488 staining (dsDNA breaks), HCC1806 (Trop-2+) [1]: 546 MFI
- decrease of ADCC relative to hRS7 (MDA-MB-468, NIH:OVCAR-3, BxPC-3) [1]: > 60%
- γH2AX induction in BxPC-3, Mean Fluorescence Intensity [1]: 5350 MFI
- γH2AX induction in BxPC-3, Percent Positive [1]: 69%
- fold lower average binding level than hRS7 [2]: 2 fold
- fold improvement of KD against naked hRS7 [3]: 2 fold
- Kd [4]: 1.2 nM
- Kd [5]: 192 nM
- Kd [6]: 0.26 nM
Molecule: Sacituzumab govitecan (IMMU-132, also known as hRS7-CL2A-SN-38) (antibody)

- γH2AX induction in BxPC-3, Mean Fluorescence Intensity [8]: 2250 MFI
- γH2AX induction in BxPC-3, Percent Positive [8]: 12.7%
B2: hA20-SN-38 (anti-CD20 hA20 / veltuzumab conjugated to SN-38), non-binding control conjugate (antibody, INN chains, looked up, V domains shown, part only)
VH: QVQLQQSGAEVKKPGSSVKVSCKASGYTFTSYNMHWVKQAPGQGLEWIGAIYPGMGDTSYNQKFKGKATLTADESTNTAYMELSSLRSEDTAFYYCARSTYYGGDWYFDVWGQGTTVTVSS
VL: DIQLTQSPSSLSASVGDRVTMTCRASSSVSYIHWFQQKPGKAPKPWIYATSNLASGVPVRFSGSGSGTDYTFTISSLQPEDIATYYCQQWTSNPPTFGGGTKLEIKR
modifications: SN-38 via CL2A linker
